One molecule from patent US20100297662A1 (TAO HEALTH LIFE PHARMA, published 2010) can be followed below.

The target of experiment [1] is T1, amylospheroid 42 (Homo sapiens (Human), UniProt P05067 672-713).
T1 construct: also called 42ASPD; ASPD
Kind of experiment: SPR, ratio of Kd values (42 fibril against 42ASPD). On the procedure:
(§1) 10 μg/ml amylospheroid (42ASPD), amyloid β monomer (42Aβ, 40Aβ), and Aβ fibril (fibril) prepared from 40Aβ were coupled to CM5 sensor chips of BIACore 3000 (BIAcore) at a concentration of […] in 50 mM acetate buffer. With the use of an antibody solution subjected to two-fold serial dilution from the maximal concentration of 100 nM in a buffer (10 mM HEPES, pH 7.4, 0.15 M NaCl, 3 mM EDTA, 0.005% Surfactant P20), the association rate constant and the dissociation rate constant were determined. With the use of these constants, the dissociation constant was calculated by the following equation.
(§2) Through the same procedure as that in Example 3(3), 42ASPD, 40Aβ (Aβ monomer), and Aβ fibril (42 fibril) prepared from 42Aβ were coupled to CM5 sensor chips, and dissociation constants of the hamster antibody haASD2, the humanized antibody huASD2, and the anti-Aβ antibody 3D6 (US 20030165496 A1) with respect to the above-described proteins were determined. […]

The target of experiment [2] is T1, amylospheroid 42. In words: SPR, ratio of Kd values (40Aβ against 42ASPD). On the procedure:
as §1, §2

Experiment [3] has as its target T2, N-terminus peptide (Aβ1-5) of the monomeric amyloid β-protein.
T2 construct: Synthetic 5-residue peptide
T2 peptide: DAEFR
In words: competitive ELISA with 5-residue Aβ peptides, same method as Example 4. The text has this:
Which one of Aβ five residue peptides the humanized antibody huASD2 was joined to was examined using the same method as that in Example 4.
(In general: An ELISA detects its analyte on a solid surface through an enzyme-linked reagent.)

Experiment [4] has as its target T1, amylospheroid 42. In words: SPR (BIAcore), antigen on CM5 chip, antibody in solution. On the procedure:
as §1
(§3) Through the same procedure as that in Example 3(3), 42ASPD, 40Aβ (Aβ monomer), and Aβ fibril (42 fibril) prepared from 42Aβ were coupled to CM5 sensor chips, and dissociation constants of the hamster antibody haASD2, the humanized antibody huASD2, and the anti-Aβ antibody 3D6 (US 20030165496 A1) with respect to the above-described proteins were determined. The anti-Aβ antibody 3D6 was produced as follows: synthesis genes corresponding to the mouse antibody light chain variable domain 3d6vl.aa and the synthesis gene corresponding to the heavy chain variable domain 3d6vh.aa of the same described in US 20030165496 A1 were produced by a conventional method, and were joined to the light chain constant domain and the heavy chain constant domain of a known mouse antibody, respectively, on the basis of the information of the aforementioned patent; by so doing, it was produced as a mouse IgG2b/κ molecule.
Background: In SPR one partner is held on a chip, and binding of the other changes the refractive index at the surface.

The target of experiment [5] is T3, Aβ fibril (42 fibril) prepared from 42Aβ (Homo sapiens (Human), UniProt P05067 672-713).
T3 construct: Fibrillar self-assembly of Aβ1-42; also called amyloid fibril
The experiment is described as above. On the procedure:
as §1, §3

The target of experiment [6] is T4, monomeric amyloid β40-protein (Aβ1-40).
T4 construct: also called 40Aβ; Aβ1-40 monomer
The description is as above. The method, then: as §1, §3

T1 sequence (P05067 672-713 limits assumed): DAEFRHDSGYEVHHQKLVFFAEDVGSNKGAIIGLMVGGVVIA
T4 sequence (peptide, as listed by the source): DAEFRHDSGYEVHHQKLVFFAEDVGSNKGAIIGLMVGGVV
T3 sequence (P05067 672-713 limits assumed): as the sequence (P05067 672-713 limits assumed) above

B1: humanized antibody huASD2 (antibody, V domains shown)
VH: EVQLVESGGGLVKPGGSLRLSCAASGFTFSDYFMSWVRQAPGKGLEWVGGIEIKSYFYATYYFGSVKGRFTISRDDSKNTLYLQMNSLKTEDTAVYYCTTNREVGGLDNWGQGTLVTVSS
VL: QSVLTQPSSLSASPGASASLTCTLRSGISVGGKNIYWYQQKPGSPPQYLLKYSSYSNKQLGPGVPSRFSGSKDASANAGILLISGLQSEDEADYYCSIHESNAYVFGGGTKLTVLG
notes: Humanized from haASD2; expressed from plasmids ASD2RHApG1D200 (heavy chain) and ASD2RLApLN100 (light chain); also called RHA/RLA; ASD2RHA/ASD2RLA
With B1, in experiment [1], the “fold higher affinity with ASPD than with amyloid fibril” value was around 6.4 times. Further, the “fold higher affinity with ASPD than with amyloid β-monomer” value in experiment [2] was around 580 times. Moreover, the binding result in experiment [3] is “binds”. In addition, the Kd – broadly, the concentration at which binding is half-saturated – in experiment [4] was 0.18 nM; in experiment [5] it was 1.15 nM; in experiment [6], 105 nM.
